Measurements from patent US20210253738A1 (UNITED STATES OF AMERICA AS REPRESENTED BY THE SECRETARY …, published 2021).

Legend:
[1] = biological target: T1, bovine serum albumin (BSA) (bovine, UniProt P02769 25-607); test: indirect EIA, compounds coated on microtiter plates, clonal supernatant, goat anti-mouse IgG HRP detection
T1 construct: Unconjugated carrier protein used as a screening control; also called carrier protein
Description: (§1) An assay was developed to screen the Mabs for reactivity to the FTC conjugates. Microtiter plates were coated with the following reagents: FTC-peptide-dextran, FTC-peptide, FTC-peptide-LPH, FTC-peptide-BSA, FTC heptanoic acid, peptide only, peptide-LPH, peptide-BSA, BSA, LPH, and normal mouse serum (NMS). All compounds were diluted into sodium bicarbonate buffer, pH 9.6, to a concentration of 5 ug/ml; NMS was diluted 1:15. One hundred microliters of each solution was added to a column of the microtiter plate such that each row of the plate allowed the testing of a single clonal supernatant against all of the compounds in a single run. Plates were incubated at 4° C. overnight and then washed 3× with phosphate-buffered saline (PBS) containing 0.05% Tween 20 (PBS-T). Plates were blocked with PBS containing 0.5% nonfat dry milk for 1 hour at 37° C., washed 3×, and dried at 37° C. for 30 minutes. Prepared plates were covered with an adhesive seal, placed into a moisture resistant bag, and stored in a dessicant chamber at 20-24° C. until use.

[2] = biological target: T2, limulus polyphemus hemocyanin II (LPH) (Limulus polyphemus, UniProt P04253 1-628, limits assumed); test: as above
T2 construct: Unconjugated carrier protein used as a screening control; also called carrier protein
T2 sequence (looked up): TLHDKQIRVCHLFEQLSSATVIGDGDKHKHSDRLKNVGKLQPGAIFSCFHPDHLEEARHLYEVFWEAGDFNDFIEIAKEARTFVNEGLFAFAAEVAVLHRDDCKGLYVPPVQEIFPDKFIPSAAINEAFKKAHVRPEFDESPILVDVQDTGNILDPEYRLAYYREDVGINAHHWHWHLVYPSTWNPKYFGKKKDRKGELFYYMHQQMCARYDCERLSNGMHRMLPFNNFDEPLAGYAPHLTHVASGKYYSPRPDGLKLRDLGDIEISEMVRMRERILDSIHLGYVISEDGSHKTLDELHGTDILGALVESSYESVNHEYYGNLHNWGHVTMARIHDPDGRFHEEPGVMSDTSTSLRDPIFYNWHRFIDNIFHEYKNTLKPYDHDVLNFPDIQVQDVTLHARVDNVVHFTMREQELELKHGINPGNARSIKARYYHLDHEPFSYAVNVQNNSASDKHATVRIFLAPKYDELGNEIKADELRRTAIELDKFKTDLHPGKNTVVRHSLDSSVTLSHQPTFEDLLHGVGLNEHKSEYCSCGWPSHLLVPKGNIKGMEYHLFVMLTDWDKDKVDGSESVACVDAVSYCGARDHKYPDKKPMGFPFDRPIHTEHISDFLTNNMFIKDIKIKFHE
Description: as §1

T1 sequence (P02769 25-607 limits assumed): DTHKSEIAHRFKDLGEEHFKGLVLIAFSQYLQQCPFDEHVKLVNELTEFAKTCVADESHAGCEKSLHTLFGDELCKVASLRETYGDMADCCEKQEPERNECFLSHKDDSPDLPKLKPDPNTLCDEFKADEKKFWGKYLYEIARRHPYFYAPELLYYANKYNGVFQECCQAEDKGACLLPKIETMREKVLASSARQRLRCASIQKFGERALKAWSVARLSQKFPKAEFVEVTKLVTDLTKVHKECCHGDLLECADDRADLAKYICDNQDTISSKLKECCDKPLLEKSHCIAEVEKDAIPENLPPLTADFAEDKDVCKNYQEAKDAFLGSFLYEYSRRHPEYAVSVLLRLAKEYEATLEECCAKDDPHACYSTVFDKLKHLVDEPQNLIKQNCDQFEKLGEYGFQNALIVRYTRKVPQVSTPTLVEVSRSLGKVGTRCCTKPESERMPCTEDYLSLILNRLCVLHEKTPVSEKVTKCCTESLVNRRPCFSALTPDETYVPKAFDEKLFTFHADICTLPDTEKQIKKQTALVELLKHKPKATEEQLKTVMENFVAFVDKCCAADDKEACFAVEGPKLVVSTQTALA

B1: 5D2 monoclonal antibody (antibody, mouse IgG2b, kappa, V domains shown)
VH: QVQLQQPGAELVKPGASVKVSCKASGYTFTSYWMHWVKQRPGQGLEWIGRIHLSDSDTNYNQNFKDKATLTVDKSSRTAHMHLSSLTSADSAVYYCAMGGTFQSNYDTYWGQGTLVTVSA
VL: DIQMTQSPASLSASVGETVTITCRASGNIHNYLAWYQQKQGKSPQLLVYNAKTLTDGVPSRFSGSGSGTQYSLKINSLQPEDFGNYYCQHFLYTPYTFGGGTKLEMRR
notes: Mouse IgG2b, kappa, raised against the small molecule emtricitabine (FTC); In the lateral flow assay the antibody was conjugated to gold; also called Mab 5D2; FTC (5D2) monoclonal antibody
B1: no binding (tested: 5 ug/ml (coating concentration)) [1]; no binding (tested: 5 ug/ml (coating concentration)) [2].
